Consider four molecules from patent US5928933A, “Process for the enzymatic resolution of N-(alkoxycarbonyl)-4-ketoproline alkyl esters or N-(alkoxycarbonyl)-4-hydroxyproline alkyl esters using Candida antarctica lipase B” (priority 1998, dated 1999).

Common to all, as to assay type: biochemical
Series [1] concerns the target T1, Candida antartica lipase fraction B (CALB) (Moesziomyces antarcticus, UniProt P41365).
T1 construct: purchased Boehringer Mannheim CHIRAZYME L-2
T1 sequence (P41365 26-342): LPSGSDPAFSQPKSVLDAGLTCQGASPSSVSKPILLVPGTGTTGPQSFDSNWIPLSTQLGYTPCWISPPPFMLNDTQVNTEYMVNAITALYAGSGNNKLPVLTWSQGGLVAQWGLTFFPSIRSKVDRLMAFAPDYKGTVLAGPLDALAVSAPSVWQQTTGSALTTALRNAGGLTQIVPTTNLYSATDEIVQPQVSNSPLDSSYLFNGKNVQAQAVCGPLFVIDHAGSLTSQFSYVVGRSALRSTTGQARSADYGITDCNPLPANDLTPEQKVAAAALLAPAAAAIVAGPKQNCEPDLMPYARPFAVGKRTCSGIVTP
The experiment in a line: Relative rates of hydrolysis of N-(alkoxycarbonyl)-trans-4-hydroxy-L-proline methyl esters by CALB. The settings on record: for time to complete hydrolysis of the methyl ester / initial reaction rate: 50 mM substrate, 3.0 mg/mL CALB, 25° C.; for time to complete hydrolysis of the methyl ester: 0.100M potassium phosphate pH 7.0; for initial reaction rate: pH 7.0. On the procedure: A 2.0 mL aqueous solution containing 50 mM N-(methoxycarbonyl)-trans-4-hydroxy-L-proline methyl ester, or 50 mM N-(ethoxycarbonyl)-trans-4-hydroxy-L-proline methyl ester, or 50 mM N-(tert-butoxycarbonyl)-trans-4-hydroxy-L-proline methyl ester in 0.100M potassium phosphate (pH 7.0) and 3.0 mg/mL of Candida antartica lipase fraction B was mixed at 25° C. The reactions were analyzed by removal of 0.200 mL aliquots at pre-determined times and mixing the sample with an equivalent volume of 0.100M propionic acid (HPLC internal standard) in water, and filtering the resulting solution through a 10K molecular weight cut-off filter to remove the enzyme. The filtrate was then analyzed by high pressure liquid chromatography on a HPX-87H column (Bio-Rad, 30 cm×7.8 mm) to determine the percent conversion of the N-(alkoxycarbonyl)-trans-4-hydroxy-L-proline methyl ester. Complete hydrolysis of the methyl ester of the N-methoxy-, N-ethoxy-, and N-tert-butoxycarbonyl derivatives occurred in 5 h, 2 h, and 6 h, respectively, and the initial reaction rates were 5.7, 18.7, and 3.3 micromoles/h/mg enzyme catalyst, respectively.

Series [2] in a line: Enzyme screens for resolution of racemic N-(methoxycarbonyl)-4,4-dimethoxy-D,L-proline methyl ester (Example 8, comparative). The settings on record: 0.100M racemate, 6 h or 17 h, 5.0 to 30 mg/mL enzyme, 25° C.; for conv. (percent conversion of the racemate): 0.25M potassium phosphate pH 7.0; for % ee (enantiomeric excess of the D-isomer): pH 7.0. On the procedure:
An aqueous solution (1.0 mL) containing 0.100M racemic N-(methoxycarbonyl)-4,4-dimethoxy-D,L-proline methyl ester in 0.25M potassium phosphate (pH 7.0) was mixed with 5.0 to 30 mg/mL of commercial enzyme preparations (listed in the table below) at 25° C. […] The ethyl acetate extract was then analyzed by chiral gas chromatography on a Chiraldex G-TA column (Advanced Separation Technologies, Inc., 50 m×0.32 mm ID) to determine the percent conversion of the racemate, and the enantiomeric excess of N-(methoxycarbonyl)-4,4-dimethoxy-D-prolinemethyl ester.

Series [3] in a line: Enzyme screens for resolution of racemic N-(methoxycarbonyl)-4-keto-D,L-proline methyl ester (Example 1). Particulars: 0.100M racemate, 5.0 to 50 mg/mL enzyme, 25° C., optimum; for conv. (percent conversion of the racemate): 0.20M sodium succinate pH 6.0, 5 h or 0.20M sodium acetate pH 5.0, 24 h; for % ee (enantiomeric excess of the D-isomer; L-isomer with porcine liver esterase): pH 6.0, 5 h or pH 5.0, 24 h. On the procedure:
An aqueous solution (1.0 mL) containing 0.100M racemic N-(methoxycarbonyl)-4-keto-D,L-proline methyl ester in either 0.20M sodium succinate (pH 6.0) or 0.20M sodium acetate (pH 5.0) was mixed with 5.0 to 50 mg/mL of commercial enzyme preparations (listed in the table below) at 25° C. […] The dichloromethane extract was then analyzed by chiral gas chromatography on a Chiraldex G-TA column (Advanced Separation Technologies, Inc., 50 m×0.32 mm ID) to determine the percent conversion of the racemate, and the enantiomeric excess of the N-(methoxycarbonyl)-4-keto-D-proline methyl ester.

Series [4] in a line: Enzyme screens for resolution of racemic N-(acetyl)-4-keto-D,L-proline methyl ester (Example 7, comparative). Particulars: 0.100M racemate, 5 h, 5.0 to 30 mg/mL enzyme, 25° C.; for conv. (percent conversion of the racemate): 0.20M sodium succinate pH 6.0; for % ee (enantiomeric excess of the D-isomer): pH 6.0. As to the method:
An aqueous solution (1.0 mL) containing 0.100M racemic N-(acetyl)-4-keto-D,L-proline methyl ester in 0.20M sodium succinate (pH 6.0) was mixed with 5.0 to 30 mg/mL of commercial enzyme preparations (listed in the table below) at 25° C. […] The dichloromethane extract was then analyzed by chiral gas chromatography on a Chiraldex G-TA column (Advanced Separation Technologies, Inc., 50 m×0.32 mm ID) to determine the percent conversion of the racemate, and the enantiomeric excess of the N-(acetyl)-4-keto-D-proline methyl ester.

A short description of series [5]: Enzyme screens for resolution of diastereomeric mixture CHLP(MEMC)/THLP(MEMC) (Example 13). The settings on record: 0.050M each isomer, 5 h, 5.0 to 50 mg/mL enzyme, 25° C.; for conv. (percent conversion of the diastereomeric mixture): 0.100M potassium phosphate pH 7.0; for % de (diastereomeric excess of the cis-L-isomer): pH 7.0. As to the method:
(§1) An aqueous solution containing 0.050M N-(methoxycarbonyl)-trans-4-hydroxy-L-proline methyl ester and 0.050M N-(methoxycarbonyl)-cis-4-hydroxy-L-proline methyl ester in 0.100M potassium phosphate (pH 7.0) was mixed with 5.0 to 50 mg/mL of commercial enzyme preparations (listed in the table below) at 25° C. The reactions were analyzed after 5 h by removal of a 0.200 mL sample and mixing with an equivalent volume of 0.100M propionic acid (HPLC internal standard) in water. The resulting solution was filtered through a 10K molecular weight cut-off filter to remove the enzyme and the filtrate analyzed by high pressure liquid chromatography on a HPX-87H column (Bio-Rad, 30 cm×7.8 mm) to determine the percent conversion of the diastereomeric mixture, and the diastereomeric excess of the N-(methoxycarbonyl)-cis-4-hydroxy-L-proline methyl ester.

Series [6] is described as follows: Enzyme screens for resolution of diastereomeric mixture CHDP(MEMC)/THLP(MEMC) (Example 9). The settings on record: 0.050M each isomer, 5 h or 24 h, 5.0 to 50 mg/mL enzyme, 25° C.; for conv. (percent conversion of the diastereomeric mixture): 0.100M potassium phosphate pH 7.0; for % de (diastereomeric excess of the D-isomer, CHDP(MEMC)): pH 7.0. On the procedure:
as §1, with “aqueous solution (1.0 mL) containing 0.050M” for “aqueous solution containing 0.050M”, “and 0.050M N-(methoxycarbonyl)-cis-4-hydroxy-D-proline methyl ester” for “and 0.050M N-(methoxycarbonyl)-cis-4-hydroxy-L-proline methyl ester”, “after 5 h or 24 h by” for “after 5 h by”, “conversion of each isomer of the diastereomeric” for “conversion of the diastereomeric”, “of the N-(methoxycarbonyl)-cis-4-hydroxy-D-proline methyl ester.” for “of the N-(methoxycarbonyl)-cis-4-hydroxy-L-proline methyl ester.”

Regarding `COC(=O)[C@@H]1C[C@@H](O)CN1C(=O)OC(C)(C)C` [THLP(MEBOC), N-(tert-butoxycarbonyl)-trans-4-hydroxy-L-proline methyl ester], in series [1], the “time to complete hydrolysis of the methyl ester” value is given as 6 h and the initial reaction rate is 3.3 micromoles/h/mg enzyme catalyst.

Turning to `CCOC(=O)N1C[C@H](O)C[C@H]1C(=O)OC` [THLP(MEEC), N-(ethoxycarbonyl)-trans-4-hydroxy-L-proline methyl ester], in series [1], the “time to complete hydrolysis of the methyl ester” value is listed as 2 h and the initial reaction rate is listed as 18.7 micromoles/h/mg enzyme catalyst. Moreover, in series [1] (CALB), the “initial rate of methyl ester hydrolysis, times faster than THLP(MEBOC)” value is roughly 1.7 times and the “initial rate of methyl ester hydrolysis, times faster than THLP(MEEC) as printed” value is listed as “approximately 3.3 times”.

B1: lipase (Chirazyme L7): commercial enzyme preparation, source porcine pancreas (protein, UniProt P00591 1-450, looked up)
Pancreatic triacylglycerol …: SEVCFPRLGCFSDDAPWAGIVQRPLKILPWSPKDVDTRFLLYTNQNQNNYQELVADPSTITNSNFRMDRKTRFIIHGFIDKGEEDWLSNICKNLFKVESVNCICVDWKGGSRTGYTQASQNIRIVGAEVAYFVEVLKSSLGYSPSNVHVIGHSLGSHAAGEAGRRTNGTIERITGLDPAEPCFQGTPELVRLDPSDAKFVDVIHTDAAPIIPNLGFGMSQTVGHLDFFPNGGKQMPGCQKNILSQIVDIDGIWEGTRDFVACNHLRSYKYYADSILNPDGFAGFPCDSYNVFTANKCFPCPSEGCPQMGHYADRFPGKTNGVSQVFYLNTGDASNFARWRYKVSVTLSGKKVTGHILVSLFGNEGNSRQYEIYKGTLQPDNTHSDEFDSDVEVGDLQKVKFIWYNNNVINPTLPRVGASKITVERNDGKVYDFCSQETVREEVLLTLNPC
Turning to B1, in series [2], the “conv. (percent conversion of the racemate)” value is listed as 10% and the “% ee (enantiomeric excess of the D-isomer)” value came to 0%. In series [3], the “conv. (percent conversion of the racemate)” value is given as 0% and the “% ee (enantiomeric excess of the D-isomer; L-isomer with porcine liver esterase)” value came to 0%. Further, in series [4], the “conv. (percent conversion of the racemate)” value is recorded as 0% and the “% ee (enantiomeric excess of the D-isomer)” value is 0%. Further, in series [5], the “conv. (percent conversion of the diastereomeric mixture)” value is recorded as 0% and the “% de (diastereomeric excess of the cis-L-isomer)” value is listed as 0%. In addition, in series [6], the “conv. (percent conversion of the diastereomeric mixture)” value was determined as 0% and the “% de (diastereomeric excess of the D-isomer, CHDP(MEMC))” value amounted to 0%.

B2: protease, trypsin bovine pancreas: commercial trypsin, source bovine pancreas (protein, UniProt P00760 24-246, looked up)
Serine protease 1: IVGGYTCGANTVPYQVSLNSGYHFCGGSLINSQWVVSAAHCYKSGIQVRLGEDNINVVEGNEQFISASKSIVHPSYNSNTLNNDIMLIKLKSAASLNSRVASISLPTSCASAGTQCLISGWGNTKSSGTSYPDVLKCLKAPILSDSSCKSAYPGQITSNMFCAGYLEGGKDSCQGDSGGPVVCSGKLQGIVSWGSGCAQKNKPGVYTKVCNYVSWIKQTIASN
As for B2, in series [2], the “conv. (percent conversion of the racemate)” value is given as 0% and the “% ee (enantiomeric excess of the D-isomer)” value came to 0%. Besides, in series [3], the “conv. (percent conversion of the racemate)” value is recorded as 0% and the “% ee (enantiomeric excess of the D-isomer; L-isomer with porcine liver esterase)” value came to 0%. For the same molecule, in series [4], the “conv. (percent conversion of the racemate)” value was 0% and the “% ee (enantiomeric excess of the D-isomer)” value came to 0%. Moreover, in series [5], the “conv. (percent conversion of the diastereomeric mixture)” value is 0% and the “% de (diastereomeric excess of the cis-L-isomer)” value was determined as 0%. Moreover, in series [6], the “conv. (percent conversion of the diastereomeric mixture)” value was determined as 0% and the “% de (diastereomeric excess of the D-isomer, CHDP(MEMC))” value is recorded as 0%.
